# In US20190328788A1 (GENAGON THERAPEUTICS, published 2019):
# Ends that are not written are not given here.
# Biological target: T1, Growth and Differentiation Factor 15 (GDF15) (UniProt Q99988 197-308, limits assumed)
# T1 construct: also called MIC-1; MIC1
# T1 sequence (looked up): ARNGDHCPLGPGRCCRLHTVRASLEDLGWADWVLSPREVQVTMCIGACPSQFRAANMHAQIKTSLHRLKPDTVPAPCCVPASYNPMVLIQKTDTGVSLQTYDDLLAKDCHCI
# Test: ELISA, peptide on streptavidin plate, ligand 100 ng/ml
# Description: (§1) Biotinylated synthetic peptide fragments from CLPTM1 (JPT peptides, Germany) were immobilized in a streptavidin 96 well plate (#15500 Pierce) at 1 μM in PBS over night at +4° C. Plate was then washed 4 times in 300 μl PBS with 0.05% tween-20 (wash buffer). The plate was then blocked with PBS 1% BSA and 0.05% tween-20 (blocking buffer) for 1.5 hours at room temperature, then washed 4 times in wash buffer. Ligands GDF15, TGFb1, TGFb2 and TGFb3 (Abcam) were added in blocking buffer at 100 ng/ml and incubated at room temperature for 2 hours. The plate was then washed 8 times in 300 μL wash buffer with 2× NaCl. An anti-GDF15 antibody was added at 1 μg/ml (R&D Systems, goat polyclonal) or a pan-specific anti-TGFb antibody (R&D Systems, mouse 1 D11), and the plate incubated in blocking buffer for 1 hour at room temperature followed by washing with 4×300 μl wash buffer. HAF017 anti-goat-HRP antibody (to detect the anti-GDF15 antibody) or Santa Cruz sc-2005 Goat anti-mouse-HRP (to detect the pan-specific anti-TGFb antibody) was added and the plate incubated for 1 hour in blocking buffer followed by a wash. TMB substrate was added and stopped after 15 minutes with H₂SO₄. OD 450-620 was measured in an ELISA reader.
row,Binder,ELISA OD450
1,"DTLMNLHVYISEHEHFTDFNATSALFWEQHDLVYGDWTSG (also: biotinylated, site not given here, also called peptide 29; GT5) [CLPTM1 peptide fragment of SEQ ID NO: 36]",0.174 OD450
2,"VSGDYYPIIYFNDYWNLQKDYYPINESLASLPLRVSFC (also: biotinylated, site not given here, also called peptide 31; GT7) [CLPTM1 peptide fragment of SEQ ID NO: 38]",0.383 OD450
3,"AAAQEADGARSAVVAAGGGSG (also: biotinylated, site not given here) [CLPTM1 peptide fragment of SEQ ID NO: 8]",0.022 OD450
4,"QNPPAQPAPNAWQVIKGVLFG (also: biotinylated, site not given here) [CLPTM1 peptide fragment of SEQ ID NO: 10]",0.042 OD450
5,"SGDYYPIIYFNDYWNLQKDYYPINESLASLPLRVSFCPLS (also: biotinylated, site not given here, also called peptide 25; GT1) [CLPTM1 peptide fragment of SEQ ID NO: 32]",0.779 OD450
6,"LWRWQLYAAQSTKSPWNFLGDELYEQSDEEQDSVKVALLETNP (also: biotinylated, site not given here, also called peptide 26; GT2) [CLPTM1 peptide fragment of SEQ ID NO: 33]",0.021 OD450
7,"ARSAVVAAGGGSSGQVTSNGSIGRDPPAETQPQNPPAQPA (also: biotinylated, site not given here, also called peptide 27; GT3) [CLPTM1 peptide fragment of SEQ ID NO: 34]",0.016 OD450
8,"NAWQVIKGVLFRIFIIWAISSWFRRGPAPQDQAGPGGA (also: biotinylated, site not given here, also called peptide 28; GT4) [CLPTM1 peptide fragment of SEQ ID NO: 35]",0.029 OD450
9,"TKSGFHPDPRQKALYRRLATVHMSRMINKYKRRRFQKTKN (also: biotinylated, site not given here, also called peptide 30; GT6) [CLPTM1 peptide fragment of SEQ ID NO: 37]",0.209 OD450
10,"PLDQYVKFDAVSGDYYPIIYFNDYWNLQKDYYPINESLA (also: biotinylated, site not given here, also called peptide 32; GT8) [CLPTM1 peptide fragment of SEQ ID NO: 39]",0.137 OD450
11,"SGDYYPIIYFNDYWNLQKDYYPINESLA (also: biotinylated, site not given here, also called peptide 33; GT9) [CLPTM1 peptide fragment of SEQ ID NO: 40]",0.518 OD450
12,"RIFIIWAISSWFRRGPAPQDG (also: biotinylated, site not given here) [CLPTM1 peptide fragment of SEQ ID NO: 11]",0.026 OD450
13,"QAGPGGAPRVASRNLFPKDTG (also: biotinylated, site not given here) [CLPTM1 peptide fragment of SEQ ID NO: 12]",0.034 OD450

# Biological target: T2, transforming growth factor-beta 1 (TGF-β1) (UniProt P01137 279-390)
# T2 construct: also called TGFb1; TGFB1
# Test: as above
# Description: as §1
# T2 sequence (P01137 279-390 limits assumed): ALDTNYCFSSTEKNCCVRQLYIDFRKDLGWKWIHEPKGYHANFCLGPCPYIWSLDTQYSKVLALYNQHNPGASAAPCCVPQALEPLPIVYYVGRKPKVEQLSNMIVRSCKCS
row,Binder,ELISA OD450
1,"DTLMNLHVYISEHEHFTDFNATSALFWEQHDLVYGDWTSG (also: biotinylated, site not given here, also called peptide 29; GT5) [CLPTM1 peptide fragment of SEQ ID NO: 36]",1.64 OD450
2,"VSGDYYPIIYFNDYWNLQKDYYPINESLASLPLRVSFC (also: biotinylated, site not given here, also called peptide 31; GT7) [CLPTM1 peptide fragment of SEQ ID NO: 38]",1.01 OD450
3,"AAAQEADGARSAVVAAGGGSG (also: biotinylated, site not given here) [CLPTM1 peptide fragment of SEQ ID NO: 8]",0.012 OD450
4,"QNPPAQPAPNAWQVIKGVLFG (also: biotinylated, site not given here) [CLPTM1 peptide fragment of SEQ ID NO: 10]",0.026 OD450
5,"SGDYYPIIYFNDYWNLQKDYYPINESLASLPLRVSFCPLS (also: biotinylated, site not given here, also called peptide 25; GT1) [CLPTM1 peptide fragment of SEQ ID NO: 32]",2.1 OD450
6,"LWRWQLYAAQSTKSPWNFLGDELYEQSDEEQDSVKVALLETNP (also: biotinylated, site not given here, also called peptide 26; GT2) [CLPTM1 peptide fragment of SEQ ID NO: 33]",0.177 OD450
7,"ARSAVVAAGGGSSGQVTSNGSIGRDPPAETQPQNPPAQPA (also: biotinylated, site not given here, also called peptide 27; GT3) [CLPTM1 peptide fragment of SEQ ID NO: 34]",0.058 OD450
8,"NAWQVIKGVLFRIFIIWAISSWFRRGPAPQDQAGPGGA (also: biotinylated, site not given here, also called peptide 28; GT4) [CLPTM1 peptide fragment of SEQ ID NO: 35]",0.098 OD450
9,"TKSGFHPDPRQKALYRRLATVHMSRMINKYKRRRFQKTKN (also: biotinylated, site not given here, also called peptide 30; GT6) [CLPTM1 peptide fragment of SEQ ID NO: 37]",0.389 OD450
10,"PLDQYVKFDAVSGDYYPIIYFNDYWNLQKDYYPINESLA (also: biotinylated, site not given here, also called peptide 32; GT8) [CLPTM1 peptide fragment of SEQ ID NO: 39]",1.86 OD450
11,"SGDYYPIIYFNDYWNLQKDYYPINESLA (also: biotinylated, site not given here, also called peptide 33; GT9) [CLPTM1 peptide fragment of SEQ ID NO: 40]",2.81 OD450
12,"RIFIIWAISSWFRRGPAPQDG (also: biotinylated, site not given here) [CLPTM1 peptide fragment of SEQ ID NO: 11]",0.008 OD450
13,"QAGPGGAPRVASRNLFPKDTG (also: biotinylated, site not given here) [CLPTM1 peptide fragment of SEQ ID NO: 12]",0.003 OD450

# Biological target: T3, transforming growth factor-beta 2 (TGF-β2) (UniProt P61812 303-414)
# T3 construct: also called TGFb2; TGFB2
# T3 sequence (looked up): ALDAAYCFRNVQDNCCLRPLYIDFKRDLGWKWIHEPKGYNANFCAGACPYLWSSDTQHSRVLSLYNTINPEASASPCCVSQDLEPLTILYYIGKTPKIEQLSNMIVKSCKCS
# Test: as above
# Description: as §1
row,Binder,ELISA OD450
1,"DTLMNLHVYISEHEHFTDFNATSALFWEQHDLVYGDWTSG (also: biotinylated, site not given here, also called peptide 29; GT5) [CLPTM1 peptide fragment of SEQ ID NO: 36]",0.838 OD450
2,"VSGDYYPIIYFNDYWNLQKDYYPINESLASLPLRVSFC (also: biotinylated, site not given here, also called peptide 31; GT7) [CLPTM1 peptide fragment of SEQ ID NO: 38]",0.717 OD450
3,"AAAQEADGARSAVVAAGGGSG (also: biotinylated, site not given here) [CLPTM1 peptide fragment of SEQ ID NO: 8]",0.01 OD450
4,"QNPPAQPAPNAWQVIKGVLFG (also: biotinylated, site not given here) [CLPTM1 peptide fragment of SEQ ID NO: 10]",0.013 OD450
5,"SGDYYPIIYFNDYWNLQKDYYPINESLASLPLRVSFCPLS (also: biotinylated, site not given here, also called peptide 25; GT1) [CLPTM1 peptide fragment of SEQ ID NO: 32]",1.63 OD450
6,"LWRWQLYAAQSTKSPWNFLGDELYEQSDEEQDSVKVALLETNP (also: biotinylated, site not given here, also called peptide 26; GT2) [CLPTM1 peptide fragment of SEQ ID NO: 33]",0.009 OD450
7,"ARSAVVAAGGGSSGQVTSNGSIGRDPPAETQPQNPPAQPA (also: biotinylated, site not given here, also called peptide 27; GT3) [CLPTM1 peptide fragment of SEQ ID NO: 34]",0.123 OD450
8,"NAWQVIKGVLFRIFIIWAISSWFRRGPAPQDQAGPGGA (also: biotinylated, site not given here, also called peptide 28; GT4) [CLPTM1 peptide fragment of SEQ ID NO: 35]",0.031 OD450
9,"TKSGFHPDPRQKALYRRLATVHMSRMINKYKRRRFQKTKN (also: biotinylated, site not given here, also called peptide 30; GT6) [CLPTM1 peptide fragment of SEQ ID NO: 37]",0.483 OD450
10,"PLDQYVKFDAVSGDYYPIIYFNDYWNLQKDYYPINESLA (also: biotinylated, site not given here, also called peptide 32; GT8) [CLPTM1 peptide fragment of SEQ ID NO: 39]",0.91 OD450
11,"SGDYYPIIYFNDYWNLQKDYYPINESLA (also: biotinylated, site not given here, also called peptide 33; GT9) [CLPTM1 peptide fragment of SEQ ID NO: 40]",2.09 OD450
12,"RIFIIWAISSWFRRGPAPQDG (also: biotinylated, site not given here) [CLPTM1 peptide fragment of SEQ ID NO: 11]",-0.003 OD450
13,"QAGPGGAPRVASRNLFPKDTG (also: biotinylated, site not given here) [CLPTM1 peptide fragment of SEQ ID NO: 12]",-0.006 OD450

# Biological target: T4, transforming growth factor-beta 3 (TGF-β3) (UniProt P10600 301-412)
# T4 construct: also called TGFb3; TGFB3
# T4 sequence (looked up): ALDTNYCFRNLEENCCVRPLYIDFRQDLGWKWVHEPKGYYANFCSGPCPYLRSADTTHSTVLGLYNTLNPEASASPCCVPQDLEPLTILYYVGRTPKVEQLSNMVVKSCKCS
# Test: as above
# Description: as §1
row,Binder,ELISA OD450
1,"DTLMNLHVYISEHEHFTDFNATSALFWEQHDLVYGDWTSG (also: biotinylated, site not given here, also called peptide 29; GT5) [CLPTM1 peptide fragment of SEQ ID NO: 36]",0.095 OD450
2,"VSGDYYPIIYFNDYWNLQKDYYPINESLASLPLRVSFC (also: biotinylated, site not given here, also called peptide 31; GT7) [CLPTM1 peptide fragment of SEQ ID NO: 38]",0.091 OD450
3,"AAAQEADGARSAVVAAGGGSG (also: biotinylated, site not given here) [CLPTM1 peptide fragment of SEQ ID NO: 8]",0.015 OD450
4,"QNPPAQPAPNAWQVIKGVLFG (also: biotinylated, site not given here) [CLPTM1 peptide fragment of SEQ ID NO: 10]",0.006 OD450
5,"SGDYYPIIYFNDYWNLQKDYYPINESLASLPLRVSFCPLS (also: biotinylated, site not given here, also called peptide 25; GT1) [CLPTM1 peptide fragment of SEQ ID NO: 32]",0.3 OD450
6,"LWRWQLYAAQSTKSPWNFLGDELYEQSDEEQDSVKVALLETNP (also: biotinylated, site not given here, also called peptide 26; GT2) [CLPTM1 peptide fragment of SEQ ID NO: 33]",0.007 OD450
7,"ARSAVVAAGGGSSGQVTSNGSIGRDPPAETQPQNPPAQPA (also: biotinylated, site not given here, also called peptide 27; GT3) [CLPTM1 peptide fragment of SEQ ID NO: 34]",0.003 OD450
8,"NAWQVIKGVLFRIFIIWAISSWFRRGPAPQDQAGPGGA (also: biotinylated, site not given here, also called peptide 28; GT4) [CLPTM1 peptide fragment of SEQ ID NO: 35]",0.027 OD450
9,"TKSGFHPDPRQKALYRRLATVHMSRMINKYKRRRFQKTKN (also: biotinylated, site not given here, also called peptide 30; GT6) [CLPTM1 peptide fragment of SEQ ID NO: 37]",0.613 OD450
10,"PLDQYVKFDAVSGDYYPIIYFNDYWNLQKDYYPINESLA (also: biotinylated, site not given here, also called peptide 32; GT8) [CLPTM1 peptide fragment of SEQ ID NO: 39]",0.074 OD450
11,"SGDYYPIIYFNDYWNLQKDYYPINESLA (also: biotinylated, site not given here, also called peptide 33; GT9) [CLPTM1 peptide fragment of SEQ ID NO: 40]",0.399 OD450
12,"RIFIIWAISSWFRRGPAPQDG (also: biotinylated, site not given here) [CLPTM1 peptide fragment of SEQ ID NO: 11]",0.003 OD450
13,"QAGPGGAPRVASRNLFPKDTG (also: biotinylated, site not given here) [CLPTM1 peptide fragment of SEQ ID NO: 12]",0.004 OD450
